Reference: article PMC3571956

How the values were obtained:
[1] = molecular target: HEV ORF3 and GFP1 fusion protein (genotype 1) (hepatitis E virus genotype 1 (W2-1 strain)); experiment: co-IP; Matchmaker Chemiluminescent Co-IP System; 293FT cells co-transfected with pAcGFP1-ORF3 and pProLabel-prey, lysed at 48 h; precipitated with anti-AcGFP (GFP1) polyclonal antibody; ProLabel chemiluminescence (RLU) read on the beads
[2] = molecular target: HEV ORF3 and GFP1 fusion protein (genotype 1) (hepatitis E virus genotype 1 (W2-1 strain)); experiment: co-IP; Matchmaker Chemiluminescent Co-IP System; 293FT cells co-transfected with pAcGFP1-ORF3 and pProLabel-prey, lysed at 48 h; precipitated with anti-HEV ORF3 polyclonal antibody; ProLabel chemiluminescence (RLU) read on the beads; three independent tests

B1: Hemopexin, ProLabel fusion (natural protein)
chain: TPLPPTSAHGNVAEGETKPDPDVTERCSDGWSFDATTLDDNGTMLFFKGEFVWKSHKWDRELISERWKNFPSPVDAAFRQGHNSVFLIKGDKVWVYPPEKKEKGYPKLLQDEFPGIPSPLDAAVECHRGECQAEGVLFFQGDREWFWDLATGTMKERSWPAVGNCSSALRWLGRYYCFQGNQFLRFDPVRGEVPPRYPRDVRDYFMPCPGRGHGHRNGTGHGNSTHHGPEYMRCSPHLVLSALTSDNHGATYAFSGTHYWRLDTSRDGWHSWPIAHQWPQGPSAVDAAFSWEEKLYLVQGTQVYVFLTKGGYTLVSGYPKRLEKEVGTPHGIILDSVDAAFICPGSSRLHIMAGRRLWWLDLKSGAQATWTELPWPHEKVDGALCMEKSLGPNSCSANGPGLYLIHGPNLYCYSDVEKLNAAKALPQPQNVTSLLGCTH
Q: B1 was tested. Which chemiluminescent intensity [1] did it give?
A: 614 RLU

Q: And the chemiluminescent intensity [2]?
A: 1140 RLU
